Test results as given in doi:10.1101/2024.06.07.597859 (bioRxiv, 2024).
“And” between values parts separate entries of the source, which are not always exact repeats. Equal entries are not always repeated.

Molecular target: the molecule itself
Test: cross-linking

B1: Plasmodium falciparum tRNA-splicing endonuclease PfTSEN1 (enzyme, UniProt A0A144A1E9 1-220, looked up)
chain: MKIIYEFKKEYYEIILNENNADDNVIDLFEKNTNKCNIEIKPYDDINSDLLDFDQFKMFNIDKDDIKKKNEDKKDEDRIKYILDKESYNNSIDKLNDNSCDESCYITDDELCKQINNPFDNTYNNKFVVKYKEYFEENSFIVKKGDIYGADFLLYITEQKYAHSLYAVYIIYKHYILRDLIRILRVSHSIKKKVILILWNELNCFNISDTLVYIKSYKYK
- stoichiometry N: 2 and 3 and 4
